A short description of the series: soluble on expression in E. coli; label from the status in PepcDB or PDB records.
On to “MSQVKRANENRETARFIKKHKKQVTNPIDEKNGTSNCIVRVPIALYVSLAPMYLENPLQGVMKQHLNPLVMKYNNKVGGVVLGYEGLKILDADPLSKEDTSEKLIKITPDTPFGFTWCHVNLYVWQPQVGDVLEGYIFIQSASHIGLLIHDAFNASIKKNNIPVDWTFVHNDGNRSLGHWVDSNGEPIDGKLRFTVRNVHTTGRVVSVDGTLIS”, for which the “soluble on expression in E. coli” value is on record as “soluble”. Take “GHHHHHHHHHHSSGHIEGRHMPAAPSPAPAGAVAGGPAAGVPAAASGAAEAAMPLPAALPGALAGSHAPRLPLAAGGRLARTRAVREFFDYCLTAQGELTPAALDALVRREIAAQLDGSPAQAEALGVWRRYRAYFDALAQLPGDGAVLGDKLDPAAMQLALDQRAALADRTLGEWAEPFFGDEQRRQRHDLERIRIANDTTLSPEQKAARLAALDAQLTPDERAQQAALHAQQDAVTKIADLQKAGATPDQMRAQIAQTLGPEAAARAAQMQQDDEAWQTRYQAYAAERDRIAAQGLAPQDRDARIAQLRQQTFTAPGEAIRAASLDRGAG”: the “soluble on expression in E. coli” value is “soluble”. The entry for “MDALTDSGSDPLLSAALGSPIHHAILSMDDEVDGNCDDVDDISPESHHDNHFIDFTDDLVVQTERNLSKKGRTSNRNARQGYDNYATLTNLQPLPPISTVTSKSTKVQRPSPSPNFYFPTSSNSSYDMKYEEEEDDCEGITHSSSSPSDFSNHGTDLNHPFSASSFDSFDVTTVSTTATSTIMNSTDKFIARIQEADSTTKSPKGTSPAALMHGHCEEDFDDGEELNTKELALQIAAELKRYSIPQAIFAERVLCRSQGTLSDLLRNPKPWSKLKSGRETFRRMAKWLEEPEFQRMSALRLAACKRKEEHTTPNSPQMVVPKKTRLVFSDIQRRTLQAIFRETKRPSREMQITISQQLNLDPTTVANFFMNARRRGHDLKQETSESEERSEEPSIHFEHSASSSSASSSSSSSMQLDNYICDINTINILEEPSPEPREIKYSMQLLENELDFPANILEP” is “not soluble”; for “STREHPPEPLDFFIWTVEDVGSWLEEINLGGYRQIFKENGVNGEYLESMSVFTTEQILHFIRRHHMKWGDFITLCKELRRIKVACLKGEQRVRRPWWAPSCLSVVFVKAAKRNRQSRVVSLKLES” it is “soluble”; for “MSLIVRRYLKQDLCAVARLEVRSFEIGPYDKEYLREVLENASSISYIAQISDKIVGYIVAMPLNSQEIDIESIATDPDFRKRSIGTRLIARIENESKSLGYRNIILEVRKENIEAISFYSRLGFNIKEFIVNYYEEYYRGSRDAYRMVKSLSEGHHHHHH” it is “not soluble”. The entry for “MSLKDFRPLILVAEDDDSNFKLIKAIIGKKCDILWAKNGEEMLNLYREHTQDAHAILMDIKMPIMNGLEATRIIREEGASLPIIMQTAYAFSSDRENAMQAGASEVLVKPITVSALRGCLSSYFPEIKWEGHHHHHH” is “soluble”; for “MEYLFLRRKKTRYTSVRQKTLLYRAASRRWEKEFALRTDVRRIDALIYKGILYLMEVRQVFLDSSLSLKTLSAMLETNQTYLSNVVNRYFGCNLKELVNTYRVEYAKELLRSGRCPIEEVPVRSGFGSKSPFYVAFGKVTGMTPRQYVAHERNPLKQEENN” it is “not soluble”; for “MTGLYIHIPFCATRCSYCDFYSQTNSALRSEYIQALIAEMSIRRAEVTDTIGTLYFGGGTPSLLSPQEIGRIIEQVYRLFSFSSDAEITLEANPDDLNTSYVQELRTLPINRISMGAQSFHDEDLHFLNRRHNARQVLEAVDTCRNAGLTNLSIDLIYGLPGQTPARWQENISAVLALSPPHLSAYHLIYEEGTPLTRLLHAGKVREVDEEVSLELFRMLREQLTGAGYEHYEISNFARSGYHSCHNSSYWQDTPYLGLGPSAHSFDGRRTRRSNPSDIRRYIVSMAAGKPLFTEEILTDNDRYNEVVMTRLRTACGLSPDQIGHLFGKESAERCIRTAAPFIRDGLLHEEADGRIRLTEKGIFLSDRIISEFFIV” it is “not soluble”. The entry for “MLPETDLRRVAAAAAAMHRVAEIRRTRVSGRMDNHERRVGTEWVVTLQGADFPVTIAADHDGSTVSFDDGSSMRVTSDWTPLEHHHHHH” is “not soluble”; for “MKQLTVEDAKQIELEILDYIDTLCKKHNINYIINYGTLIGAVRHEGFIPWDDDIDLSMPREDYQRFINIFQKEKSKYKLLSLETDKNYFNNFIKITDSTTKIIDTRNTKTYESGIFIDIFPIDRFDDPKVIDTCYKLESFKLLSFSKHKNIVYKDSLLKDWIRTAFWLLLRPVSPRYFANKIEKEIQKYSRENGQYMAFIPSKFKEKEVFPSGTFDKTIDLPFENLSLPAPEKFDTILTQFYGDYMTLPPEEKRFYSHEFHAYKLEDLEHHHHHH” it is “soluble”. “MAHHHHHHMSWRARFTPCVGSLTVWLNPKDPNCFGVRNWWRNNLPELQLLNPFCTFTIQELSFGEPHMYVNYTPTDQRMIRLAGATEEECEEIMEACITYGMNHAIIERPRTDDGGDLVNQPAITSFGYTESFTAKLEVAPPADIGQKTTEGVDDPGQKPRLYPRNVGCKLMP”: the “soluble on expression in E. coli” value was “not soluble”. In the case of “MQPSHPSQPSHADRAAPTSALAPVVPPVLAEVVRSGFVEGRHRGSLVVLGADGAVELALGEVTAPVFPRSSNKPMQAAGVLRAGLDLAGERLALAAASHSGEPFHRDLVRKMLDEYGLDPALLQCPPDLPLDAEERETYLASGAEPDRVTMNCSGKHTAMLAVCAQQGWPLETYLDPEHPLQRVIHRVVEDAAGEPVAAVGTDGCGAPLMAISLVGLARAFRSFVAAEPGSAERRVADAMRAHPEYVAGSRRADTWLMREVPGSLSKMGAEAVQAVALPDGRALAFKIEDGATRALGPVLARALTLLGVDAPVVGRIGRAPLLGGGREVGEIRASFLEHHHHHH”, the “soluble on expression in E. coli” value was “not soluble”. The entry for “MGSDKIHHHHHHMLNMSNVPNDSVEEDGRLPTGKLPSAIGKNHRIAVVDTHFHLWKSQEIAPPSGIMADPSLFRDFDWSDYELAMQGVALEAAIHVQVHHGSEKAKSEYGRVERFAAEHAPIAGMIAWAPLESPGVEREIAELAQSPLVAGVRRLTQQEPDELFCARPQFVAGAKLLASYGLVCEVCVLEHQLKGVIALASACPELTIILDHLGKPHLAEPPTEHWLENMRILGMLENVVCKVAPTPLWASDPPLTAAHAAPFIEYVAEHFGWDRLIYGSNWPPLRILTDDASQWADIVFKTLHWAKADELGRLFSENARRIFRLNKGHR” is “not soluble”; for “MSFSENRRIALVTLVVDNYDRAKAFYCDVLGFECLSDKPLDDGKRWVVVKPQGAEGGALLLAEADGEQQRLAIGNQTGGRVGFFLHTDDFARDYETMIARGVHFLEEPRHEVYGSVAVFADPYGNRWDLLQPRG” it is “not soluble”. The entry for “MRADVKPVTVKLVDSQATMETRSLFAFMQEQRRHSIMFGHQHETTQGLTITRTDGTQSDTFNAVGDFAAVYGWDTLSIVAPKAEGDIVAQVKKAYARGGIITVSSHFDNPKTDTQKGVWPVGTSWDQTPAVVDSLPGGAYNPVLNGYLDQVAEWANNLKDEQGRLIPVIFRLYHENTGSWFWWGDKQSTPEQYKQLFRYSVEYLRDVKGVRNFLYAYSPNNFWDVTEANYLERYPGDEWVDVLGFDTYGPVADNADWFRNVVANAALVARMAEARGKIPVISGIGIRAPDIEAGLYDNQWYRKLISGLKADPDAREIAFLLVWRNAPQGVPGPNGTQVPHYWVPANRPENINNGTLEDFQAFYADEFTAFNRDIEQVYQRPTLIVK” is “soluble”; for “MAIVPFKRDPTFYPSPKMAMKAPPEDLAYVACLYTGTGINRADFIAVVDVNPKSETYSKIVHKVELPYINDELHHFGWNACSSALCPNGKPNIERRFLIVPGLRSSRIYIIDTKPNPREPKIIKVIEPEEVKKVSGYSRLHTVHCGPDAIYISALGNEEGEGPGGILMLDHYSFEPLGKWEIDRGDQYLAYDFWWNLPNEVLVSSEWAVPNTIEDGLKLEHLKDRYGNRIHFWDLRKRKRIHSLTLGEENRMALELRPLHDPTKLMGFINMVVSLKDLSSSIWLWFYEDGKWNAEKVIEIPAEPLEGNLPEILKPFKAVPPLVTDIDISLDDKFLYLSLWGIGEVRQYDISNPFKPVLTGKVKLGGIFHRADHPAGHKLTGAPQMLEISRDGRRVYVTNSLYSTWDNQFYPEGLKGWMVKLNANPSGGLEIDKEFFVDFGEARSHQVRLSGGDASSDSYCYP” it is “soluble”; for “KGDWAWQAGFSLSGVKNEITDMKGVEDIKDNTINREGEAIGSYYGLKAIGIYRTQADLDRVNANGQKILQNNQEPQLGDIMYEDIDNNGNINDADRTIIGNPFPKMQYSFNLGFSYKDFDVNTFWQGIAGVYRYNWDETTISNGGNKTSRWLDRWSESNPNGSMPRLGGTINNNYSSFWLTKGDYLRLKNLEIGYTFRQREFLTKLGVQSIRLYLAGTNLLTFTSLDDYDPEKLSTDSRNDVHPNTRTYSFGVNVKF” it is “not soluble”. Regarding “MLALGKLLELTLAGREPAEKTQLTVEGVRMRWLAEGALEVRPPQARDNGTDLLLSAGIHGNETAPIELLDELIRSIARGDLKPRARILFLFGNPAAMRLGARYVEQDVNRLFNGRHEQSGGAEALRACELERLAASFFSLPDRYRLHYDLHTAIRGSKIEQFALYPWKEGRQHSRFELARLRAAGISAVLLQNKPSIVFSAYTYEQLGAEAFTLELGKARPFGQNRHVNLAPLRLRLEQIIEGSEPQPDERLEGLQLFSVAREVIKRSDAFTFNLADDVENFSELEKGYVLAEDVSDSRWVVKEEGARIIFPNPKVKNGLRAGIVIVPADADGLGLEHHHHHH”, the “soluble on expression in E. coli” value is “not soluble”.

Turning to “MIDDLLNFFNSFNVVKNYKLINQLKNEVDTLKSRLDIPRELLDGFYADRNSREYREVYEKDAPLVTVCIGTYNRGKLLVERSVRSVLEQSYGNIELIVVGDCCTDDTPRLVQGITDPRFRFINLPERGNYPENPLHRWCVAGTVPFNYALSQARGDFITHLDDDDEFVPDRIEKLVKFIQREKADLVWHPFWYERSNGRWAMRKAQEFSGGKVTTSSIFYHRWFTAVPWDIEAYRYQEPGDWNRLRKIKYLGARVARYPEPLLRHYCERNQESLSSRTIQTRNTKLEHHHHHH”, the “soluble on expression in E. coli” value is reported as “not soluble”. Regarding “MFQQQKDWETRENAFAAFTMGPLTDFWRQRDEAEFTGVDDIPVRFVRFRAQHHDRVVVICPGRIESYVKYAELAYDLFHLGFDVLIIDHRGQGRSGRLLADPHLGHVNRFNDYVDDLAAFWQQEVQPGPWRKRYILAHSMGGAISTLFLQRHPGVCDAIALTAPMFGIVIRMPSFMARQILNWAEAHPRFRDGYAIGTGRWRALPFAINVLTHSRQRYRRNLRFYADDPTIRVGGPTYHWVRESILAGEQVLAGAGDDATQTLLLQAEEERVVDNRMHDRFCELRTAAGHPVEGGRPLVIKGAYHEILFEKDAMRSVALHAIVDFFNRHNSPSGNRSTEV”, the “soluble on expression in E. coli” value is given as “not soluble”. Take “MGSDKIHHHHHHMEPIIEIENFSAYYGEKIAVKNVTMKIFKNQITAIIGPSGCGKTTLLRSINRMNDHLPGFRVEGKIYFKGQDIYDPQLDVTEYRKRVGMVFQKPTPFPMSIYDNVAFGPRIHGVKSKHILDRIVEESLKKAALWDEVKSELNKSGTRLSGGQQQRLCIARALAVEPEVILLDEPTSALDPIATQRIEKLLEELSENYTIVIVTHNIGQAIRIADYIAFMYRGELIEYGPTREIVERPKNRLTEEYLTGKIG”: the “soluble on expression in E. coli” value is listed as “not soluble”.
